Source: patent publication US11833164B2, “Methods of treating Fabry disease in patients having a mutation in the GLA gene” (Amicus Therapeutics, Inc., priority 2019, dated 2023)
Where a chain is given by its changes, count along the chain named. In names and notes the source's numbering stands.

B1: Q327H (protein)
chain: MQLRNPELHLGCALALRFLALVSWDIPGARALDNGLARTPTMGWLHWERFMCNLDCQEEPDSCISEKLFMEMAELMVSEGWKDAGYEYLCIDDCWMAPQRDSEGRLQADPQRFPHGIRQLANYVHSKGLKLGIYADVGNKTCAGFPGSFGYYDIDAQTFADWGVDLLKFDGCYCDSLENLADGYKHMSLALNRTGRSIVYSCEWPLYMWPFQKPNYTEIRQYCNHWRNFADIDDSWKSIKSILDWTSFNQERIVDVAGPGGWNDPDMLVIGNFGLSWNQQVTQMALWAIMAAPLFMSNDLRHISPQAKALLQDKDVIAINQDPLGKHGYQLRQGDNFEVWERPLSGLAWAVAMINRQEIGGPRSYTIAVASLGKGVACNPACFITQLLPVKRKLGFYEWTSRLRSHINPTGTVLLQLENTMQMSLKDLL
B2: Q327P (protein)
chain: B1 chain with H327P
B3: Y329C (protein)
chain: B1 chain with H327Q, Y329C
B4: Y329D (protein)
chain: B1 chain with H327Q, Y329D
B5: Y329F (protein)
chain: B1 chain with H327Q, Y329F
B6: Y329H (protein)
chain: B1 chain with H327Q, Y329H
B7: Y329N (protein)
chain: B1 chain with H327Q, Y329N
B8: Q330E (protein)
chain: B1 chain with H327Q, Q330E
B9: Q330H (protein)
chain: B1 chain with H327Q, Q330H
B10: Q330K (protein)
chain: B1 chain with H327Q, Q330K
B11: L331H (protein)
chain: B1 chain with H327Q, L331H
B12: L331P (protein)
chain: B1 chain with H327Q, L331P
B13: L331R (protein)
chain: B1 chain with H327Q, L331R
B14: L331V (protein)
chain: B1 chain with H327Q, L331V
B15: R332G (protein)
chain: B1 chain with H327Q, R332G
B16: R332I (protein)
chain: B1 chain with H327Q, R332I

tested on: mutant form of α-Gal A expressed in HEK-293 cells; assay: HEK assay (GLP HEK / Migalastat Amenability Assay): α-Gal A activity in lysates of transiently transfected HEK-293 cells incubated with or without 10 μM migalastat; format: cell-based, human; settings: 10 μM migalastat versus baseline
Procedure, shortened: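 HEK-293 cells transiently transfected with mutant α-Gal A and incubated with or without 10 μM migalastat; lysate activity given as nmol free 4-MU released per mg protein per hour. Values are mean±SEM.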

Molecule | Absolute increase (% WT) | Relative increase
B1 | 7.4 | 
B2 | 36.4 | 2.4
B3 | 7.8 | 1.3
B4 | 12.5 | 3.9
B5 | 16.6 | 1.5
B6 | 16.2 | 1.4
B7 | 15.6 | 1.7
B8 | 19.9 | 1.7
B9 | 40.8 | 2.2
B10 | 21.1 | 1.3
B11 | 25.9 | 1.6
B12 | 3.1 | 6.5
B13 | 23.3 | 1.6
B14 | 28.0 | 1.3
B15 | 23.4 | 1.3
B16 | 43.2 | 1.7

same assay, conditions: absence of migalastat; percentage of baseline wild-type α-Gal A activity; mean ± SEM

Molecule | Baseline α-Gal A activity (% WT)
B2 | 26.2 ± 1.8
B3 | 31.2 ± 1.5
B4 | 4.2 ± 0.2
B5 | 30.6 ± 1.5
B6 | 47.2 ± 3.8
B7 | 21.8 ± 1.5
B8 | 26.4 ± 1.5
B9 | 33.1 ± 2.8
B10 | 71 ± 2.7
B11 | 42 ± 3.2
B12 | 0.6 ± 0.1
B13 | 33.2 ± 1.5
B14 | 89.4 ± 4.5
B15 | 78.8 ± 2.7
B16 | 63.3 ± 4.5

same assay, conditions: lysates of HEK-293 cells transiently transfected with the mutant form, incubated 5 days in absence of migalastat; mean ± SEM

Molecule | Baseline α-Gal A activity (nmol/mg/hr) | Baseline α-Gal A activity [nmol/mg/h]
B1 | BLD (“BLD” indicates that the mean α-Gal A activity was below the limit of detection (<142 nmol/mg/hr)) | 
B2 |  | 7775 ± 561
B3 |  | 9148 ± 414
B4 |  | 1249 ± 66
B5 |  | 10368 ± 646
B6 |  | 13757 ± 963
B7 |  | 6448 ± 436
B8 |  | 7500 ± 345
B9 |  | 9296 ± 649
B10 |  | 20289 ± 720
B11 |  | 11743 ± 634
B12 |  | 157 ± 20
B13 |  | 9725 ± 634
B14 |  | 25163 ± 801
B15 |  | 33043 ± 1431
B16 |  | 24614 ± 1678

same assay, conditions: lysates of HEK-293 cells transiently transfected with the mutant form, incubated 5 days with 10 μM migalastat; mean ± SEM

Molecule | 10 μM migalastat α-Gal A activity [nmol/mg/h]
B1 | 2197 ± 226
B2 | 18612 ± 1075
B3 | 11442 ± 480
B4 | 4917 ± 181
B5 | 15566 ± 603
B6 | 18672 ± 772
B7 | 11035 ± 429
B8 | 13086 ± 589
B9 | 20752 ± 592
B10 | 26149 ± 1074
B11 | 19003 ± 791
B12 | 1029 ± 32
B13 | 15841 ± 639
B14 | 33050 ± 967
B15 | 42737 ± 1959
B16 | 41550 ± 2461

same assay, conditions: with 10 μM migalastat, 5 days; percentage of baseline wild-type α-Gal A activity; mean ± SEM

Molecule | 10 μM migalastat α-Gal A activity (% WT)
B1 | 7.4 ± 0.7
B2 | 62.6 ± 3.1
B3 | 38.9 ± 1.6
B4 | 16.7 ± 0.6
B5 | 47.1 ± 2.8
B6 | 63.4 ± 2.6
B7 | 37.4 ± 1.2
B8 | 46.4 ± 2.6
B9 | 73.9 ± 3.6
B10 | 92.1 ± 4.2
B11 | 67.9 ± 4.3
B12 | 3.7 ± 0.2
B13 | 56.5 ± 3.2
B14 | 117.4 ± 5.6
B15 | 102.3 ± 4.6
B16 | 106.6 ± 6.4
